T1: PvMYB4a (Panicum virgatum)
T1 chain: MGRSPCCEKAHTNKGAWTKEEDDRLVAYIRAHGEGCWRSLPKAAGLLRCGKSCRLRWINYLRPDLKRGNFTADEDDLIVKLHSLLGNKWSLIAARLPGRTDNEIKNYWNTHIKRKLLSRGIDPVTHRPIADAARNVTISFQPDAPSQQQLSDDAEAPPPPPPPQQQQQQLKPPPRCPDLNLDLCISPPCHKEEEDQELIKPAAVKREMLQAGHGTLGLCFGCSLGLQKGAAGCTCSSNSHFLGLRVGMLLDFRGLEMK

B1: AC-I x3 EMSA probe (dsDNA)
DNA 1: CGGTACCAGTCCACCTACCGCCACCTACCGCCACCTACCGCTGTTCTCGA
DNA 2: TCGAGAACAGCGGTAGGTGGCGGTAGGTGGCGGTAGGTGGACTGGTACCG
B2: AC-II x3 EMSA probe (dsDNA)
DNA 1: CGGTACCAGTCCACCAACCGCCACCAACCGCCACCAACCGCTGTTCTCGA
DNA 2: TCGAGAACAGCGGTTGGTGGCGGTTGGTGGCGGTTGGTGGACTGGTACCG
B3: AC-III x3 EMSA probe (dsDNA)
DNA 1: CCAGTCCACCTAACTCTACCTAACTCTACCTAACGCTGTTC
DNA 2: GAACAGCGTTAGGTAGAGTTAGGTAGAGTTAGGTGGACTGG
B4: AC-IV x3 EMSA probe (dsDNA)
DNA 1: CCAGTCCACCAAACTCTACCAAACTCTACCAAACGCTGTTC
DNA 2: GAACAGCGTTTGGTAGAGTTTGGTAGAGTTTGGTGGACTGG
B5: AtGA20ox2 promoter AC-IV (dsDNA)
DNA 1: ATTATAAGAAAGATTAAAAAACCAAACAAATGTACACTAACATGACT
DNA 2: AGTCATGTTAGTGTACATTTGTTTGGTTTTTTAATCTTTCTTATAAT
B6: AtGA20ox2 promoter AC-II (dsDNA)
DNA 1: CTTAACTCTTAACTGGTCGAACCAACCATGAATGATTTGGGCATAAT
DNA 2: ATTATGCCCAAATCATTCATGGTTGGTTCGACCAGTTAAGAGTTAAG

Biological target: T1, PvMYB4a
Test: EMSA; 5 mM MgCl2, 50 mM KCl, pH 7.5, 4 C
Conditions: tags: N-terminal His (pDEST17), E. coli BL21 DE3; label: biotin
Experimental: PvMYB4a was cloned into the pDEST17 expression vector by the Gateway cloning method (Invitrogen). After sequencing, the plasmid was transformed into BL21 DE3 E. coli competent cells. IPTG was added to induce expression of PvMYB4. The recombinant protein was purified with the MagneHis™ Protein Purification System (Promega Corporation, Madison, Wis.) then concentrated with an Amicon Ultra-15 Centrifugal Filter (Millipore Corporation, Billerica, Mass.). About 700-1000 ng of purified PvMYB4 protein was used for EMSA in each reaction. The probes were labeled by annealing biotin-labeled olignucleotides or PCR products, then purified with a gel extraction kit (QIAGEN). Binding conditions were 12 mM Tris-HCl (pH 7.5), 20 mM NaCl, 50 mM KCl, 5 mM MgCl₂, 1 mM DTT, 0.2 mM EDTA, 2.5% glycerol, 1 mM β-ME, 0.05% NP-40 and 2 fmol biotin-labeled probes. The samples were loaded and run in a 6% DNA retardant gel (Invitrogen) in the cold room after the reactions had been incubated at 4° C. for 30 minutes. The DNA was transferred onto Nylon membranes and signal detected with a LightShift® Chemiluminescent EMSA Kit (Thermo Fisher Scientific Inc. Rockford, Ill.) using standard protocols.

Binder | binding result
B1 | binds
B2 | binds
B3 | binds
B4 | no binding

Biological target: T1, PvMYB4a
Test: EMSA; 5 mM MgCl2, 50 mM KCl, pH 7.5, 4 C
Conditions: tags: N-terminal His (pDEST17), E. coli BL21 DE3; label: biotin
Remark: another data set of the same source
Experimental: The present and previous studies indicate that subfamily 4 MYB proteins directly bind the AC cis-elements in downstream monolignol biosynthesis gene promoters (Legay et al., 2007; Sonbol et al., 2009). […] Gel shift assays were performed to test for possible direct binding of PvMYB4 to different AtGA20-ox2 promoter regions in vitro. Analysis of the AtGA20-ox2 promoter 1500 bp upstream of the transcription start site identified an AC-II (−1200 bp) and an AC-IV (−150 bp) element. […] This is consistent with the direct binding of PvMYB4 to the synthetic AC-II elements (FIG. 4F). Binding of PvMYB4 to the AC elements in the GA20-ox promoter appears to inhibit expression of the gene.
PvMYB4a was cloned into the pDEST17 expression vector by the Gateway cloning method (Invitrogen). After sequencing, the plasmid was transformed into BL21 DE3 E. coli competent cells. IPTG was added to induce expression of PvMYB4. The recombinant protein was purified with the MagneHis™ Protein Purification System (Promega Corporation, Madison, Wis.) then concentrated with an Amicon Ultra-15 Centrifugal Filter (Millipore Corporation, Billerica, Mass.). About 700-1000 ng of purified PvMYB4 protein was used for EMSA in each reaction. […] The DNA was transferred onto Nylon membranes and signal detected with a LightShift® Chemiluminescent EMSA Kit (Thermo Fisher Scientific Inc. Rockford, Ill.) using standard protocols.

Binder | binding result
B5 | no binding
B6 | binds
